Source: patent US20140017242A1, “ANTI-BRADYKININ B2 RECEPTOR (BKB2R) MONOCLONAL ANTIBODY” (Diamedica, Inc., priority 2010, published 2014)

Tests used:
[1] = target: T1, human BKB2R-derived epitope peptide, SE ID NO:73 (Homo sapiens, UniProt P30411); assay: ForteBio Octet binding kinetics to the BKB2R epitope peptide
T1 construct: purchased Biosyn, Lewisville, Tex
Method in brief: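 Antibodies were titrated kinetically on a ForteBio Octet label-free biolayer interferometry platform against the human BKB2R epitope peptide (SEQ ID NO:73), compared with the parent mouse monoclonal. Streptavidin biosensors coated with biotinylated peptide at 50 μg/ml were equilibrated in kinetic buffer, then underwent 500 s association in antibody dilutions and 500 s dissociation in buffer.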

[2] = system: ZDF fa/fa rats; assay: 21-day ZDF fa/fa study: tolerability; type: in vivo, rat; conditions: different doses (0.2, 0.04, 0.008 mg/kg s.c. every 3 days), 21 days
Experimental: Animals. Male ZDF fa/fa rats were obtained from CRL (Kingston, N.Y.). Upon arrival, rats were seven weeks of age. The rats were housed individually per cage in a room with a photo cycle of 12 hours of light and 12 hours of dark and an ambient temperature of 70-72° F. and fed on regular rodent diet and water ad libitum. At the age of eleven weeks, rats were divided into six groups (Table 5) of eight rats per group based on fasting blood glucose levels. A sub-group of four rats per group was maintained in parallel to the main groups and was dosed similarly for twenty-one days for a hyperinsulinemic-euglycemic clamp study.
The test compounds 5F12G1 and MG2b-57 were administered subcutaneously once every three days. Exenatide was administrated intraperitoneally twice every day and sitagliptin was administrated orally once every day for a period of twenty-one days.

[3] = system: MV-4-11; assay: MTT Cell Proliferation Assay, MV-4-11; type: cell-based, human; conditions: 120 hours of exposure
Text: (§1) This Example describes characterization of the cytotoxic activity of herein described anti-BKB2R monoclonal antibodies against a panel of cancer cell lines. BxPC-3 is a human adenocarcinoma cell line originally isolated from the pancreas (pancreatic cancer) (ATCC # CRL-1687; Tan et al., Cancer Invest. 4: 15-23, 1986. PubMed: 3754176). MV-4-11 is a human biphenotypic B myelomonocytic leukemia (mixed-lineage leukemia, MLL-AF4) cell line originally isolated from the peripheral blood (ATCC # CRL-959; Lange et al., Blood 70: 192-199, 1987. PubMed: 3496132). Hep G2 is a human hepatocellular carcinoma cell line isolated from the liver (liver cancer) (ATCC # HB-8065; Aden et al., Nature 282: 615-616, 1979. PubMed: 233137). RS4;11 is a human acute lymphoblastic leukemia (mixed-lineage leukemia, MLL-AF4) cell line isolated from the bone marrow (ATTC # CRL-1873) Stong et al., Blood 65: 21-31, 1985. PubMed: 3917311). HT-29 is a human colorectal adenocarcinoma (ATTC # HTB-38) cell line isolated from the colon (colon cancer). Fogh et al., J. Natl. Cancer Inst. 58: 209-214, 1977. PubMed: 833871). NUGC-4 is a human stomach carcinoma isolated from the stomach paragastiric lymph node (JCRB # JCRB0834; Akiyama et al., Jpn. J. Surg., 18: 438-446, 1988). […]
(§2) The anti-proliferative activity of test compounds against the indicated cell lines was evaluated in vitro using the ATCC's MTT Cell Proliferation Assay (Catalog No. 30-1010K). After the 120 hour incubation with drug (e.g., anti-BKB2R mAb or cisplatin), cell proliferation was measured by addition of MTT reagent to each well and incubation for an additional 4 hrs. […] Optical absorbance (570 nm) of the test wells was measured and then quantitated relative to control wells that received no drug. Results were expressed as percent inhibition versus compound concentration and graphed, as shown in FIGS. 19-25, for cell lines BxPC-3, MV-4;11, HepG2, RS-4;11, HT-29, NUGC-4, and PC-3, respectively.

[4] = system: PC-3; assay: MTT Cell Proliferation Assay, PC-3; type: cell-based, human; conditions: 120 hours of exposure
Text: as §1, §2

B1: 5F12G1: murine monoclonal anti-BKB2R antibody (IgG2b,κ), VH comprising SEQ ID NO:1, VL comprising SEQ ID NO:2 (antibody, listed as Mus musculus, V domains shown)
VH: EVKLEESGGGLVQPGGSMKLSCVVSGFTFSDYWMSWVRHSPEMGLEWVAEIRLKSDNYATHYAESVKGRFTISRDDSKSRLYLQINSLRGEDTGIYYCTRDYYAMEYWGQGTSVTVSS
VL: DVVMTQTPLSLPVSLGDQASISCRSSQTIVHSNGKTYLEWYLQKPGQSPKLLIYKVSNRFSGVPDRFSGSGSGTEFTLKISRVETEDLGVYYCFQASHVPYTFGGGTKLEIK
[1]; Conc. 833 nM
  Max Response: 0.0265
  kdis: 0.00109 s⁻¹
  kon: 2350 M⁻¹ s⁻¹
[1]; Conc. 1000 nM
  Max Response: 0.0385
  kdis: 0.00109 s⁻¹
  kon: 2350 M⁻¹ s⁻¹
[1]; Conc. 1667 nM
  Max Response: 0.0544
  kdis: 0.00109 s⁻¹
  kon: 2350 M⁻¹ s⁻¹
[1]; Conc. 3333 nM
  Max Response: 0.0757
  kdis: 0.00109 s⁻¹
  kon: 2350 M⁻¹ s⁻¹
[2]
  tolerability / toxic effects: well tolerated and no toxic effects were noted
[3]
  EC 50 Values (ng/ml) MV-4-11: 35000 ng/mL
[4]
  EC 50 Values (ng/ml) PC-3: 4200 ng/mL
